Conditions: human, in vivo
Procedure: The patient dissolved varying amounts of grape seed powder containing 20% (w/w) of oligomeric proanthocyanidin (OPC) in 37% alcohol/water to produce solutions having OPC concentrations of 1,000 mg/ml, 2,000 mg/ml and 4,000 mg/ml. Each of the solutions were filtered the resulting filtrate then diluted 1:1 with water to produce solutions having final concentrations of 500 mg OPC/l, 1,000 mg OPC/l and 2,000 mg OPC/l. They loaded 3 ml of the 500 mg OPC/l solution into an inhaler and self-administered the solution to their lungs two to three times/day for a few days. […] They performed the same experiment with each of the higher concentration OPC solutions. […] The patient then prepared a solution of bovine apolactoferrin. The lactoferrin was manufactured by Life Extension as a solid in a capsule. The patient broke open capsules and dissolved the lactoferrin therein in 18.5% alcohol/water to final concentrations ranging from 1 g lactoferrin/l to 4.5 g lactoferrin/l. […] The patient reported a relief from all signs of their infection, including coughing, for 4 to 5 hours following administration of the lactoferrin. After that time, their condition began to return to the pre-treatment state. […] It is theorized that this may have been due to a build-up in the patient's lungs of contaminants present in the OPC/lactoferrin preparation that could not be removed by filtration prior to administration. […]

B1: lactoferrin: bovine apolactoferrin manufactured by Life Extension as a solid in a capsule, dissolved in 18.5% alcohol/water (protein, UniProt P24627 20-708, looked up)
Lactotransferrin: APRKNVRWCTISQPEWFKCRRWQWRMKKLGAPSITCVRRAFALECIRAIAEKKADAVTLDGGMVFEAGRDPYKLRPVAAEIYGTKESPQTHYYAVAVVKKGSNFQLDQLQGRKSCHTGLGRSAGWIIPMGILRPYLSWTESLEPLQGAVAKFFSASCVPCIDRQAYPNLCQLCKGEGENQCACSSREPYFGYSGAFKCLQDGAGDVAFVKETTVFENLPEKADRDQYELLCLNNSRAPVDAFKECHLAQVPSHAVVARSVDGKEDLIWKLLSKAQEKFGKNKSRSFQLFGSPPGQRDLLFKDSALGFLRIPSKVDSALYLGSRYLTTLKNLRETAEEVKARYTRVVWCAVGPEEQKKCQQWSQQSGQNVTCATASTTDDCIVLVLKGEADALNLDGGYIYTAGKCGLVPVLAENRKSSKHSSLDCVLRPTEGYLAVAVVKKANEGLTWNSLKDKKSCHTAVDRTAGWNIPMGLIVNQTGSCAFDEFFSQSCAPGADPKSRLCALCAGDDQGLDKCVPNSKEKYYGYTGAFRCLAEDVGDVAFVKNDTVWENTNGESTADWAKNLNREDFRLLCLDGTRKPVTEAQSCHLAVAPNHAVVSRSDRAAHVKQVLLHQQALFGKNGKNCPDKFCLFKSETKNLLFNDNTECLAKLGGRPTYEEYLGTEYVTAIANLKKCSTSPLLEACAFLTR
modifications: apo form
notes: bovine apolactoferrin manufactured by Life Extension as a solid in a capsule, dissolved in 18.5% alcohol/water
- side effects on inhalation: no immediate deleterious side effects
